Patent US20040219615

B1: RIP (receptor interacting protein) (protein)
chain: MQPDMSLNVIKMKSSDFLESAELDSGGFGKVSLCFHRTQGLMIMKTVYKGPNCIEHNEALLEEAKMMNRLRHSRVVKLLGVIIEEGKYSLVMEYMEKGNLMHVLKAEMSTPLSVKGRIILEIIEGMCYLHGKGVIHKDLKPENILVDNDFHIKIADLGLASFKMWSKLNNEEHNELREVDGTAKKNGGTLYYMAPEHLNDVNAKPTEKSDVYSFAVVLWAIFANKEPYENAICEQQLIMCIKSGNRPDVDDITEYCPREIISLMKLCWEANPEARPTFPGIEEKFRPFYLSQLEESVEEDVKSLKKEYSNENAVVKRMQSLQLDCVAVPSSRSNSATEQPGSLHSSQGLGMGPVEESWFAPSLEHPQEENEPSLQSKLQDEANYHLYGSRMDRQTKQQPRQNVAYNREEERRRRVSHDPFAQQRPYENFQNTEGKGTAYSSAASHGNAVHQPSGLTSQPQVLYQNNGLYSSHGFGTRPLDPGTAGPRVWYRPIPSHMPSLHNIPVPETNYLGNTPTMPFSSLPPTDESIKYTIYNSTGIQIGAYNYMEIGGTSSSLLDSTNTNFKEEPAAKYQAIFDNTTSLTDKHLDPIRENLGKHWKNCARKLGFTQSQIDEIDHDYERDGLKEKVYQMLQKWVMREGIKGATVGKLAQALHQCSRIDLLSSLIYVSQN
B2: IKK1 (protein)
chain: MERPPGLRPGAGGPWEMRERLGTGGFGNVCLYQHRELDLKIAIKSCRLELSTKNRERWCHEIQIMKKLNHANVVKACDVPEELNILIHDVPLLAMEYCSGGDLRKLLNKPENCCGLKESQILSLLSDIGSGIRYLHENKIIHRDLKPENIVLQDVGGKIIHKIIDLGYAKDVDQGSLCTSFVGTLQYLAPELFENKPYTATVDYWSFGTMVFECIAGYRPFLHHLQPFTWHEKIKKKDPKCIFACEEMSGEVRFSSHLPQPNSLCSLVVEPMENWLQLMLNWDPQQRGGPVDLTLKQPRCFVLMDHILNLKIVHILNMTSAKIISFLLPPDESLHSLQSRIERETGINTGSQELLSETGISLDPRKPASQCVLDGVRGCDSYMVYLFDKSKTVYEGPFASRSLSDCVNYIVQDSKIQLPIIQLRKVWAEAVHYVSGLKEDYSRLFQGQRAAMLSLLRYNANLTKMKNTLISASQQLKAKLEFFHKSIQLDLERYSEQMTYGISSEKMLKAWKEMEEKAIHYAEVGVIGYLEDQIMSLHAEIMELQKSPYGRRQGDLMESLEQRAIDLYKQLKHRPSDHSYSDSTEMVKIIVHTVQSQDRVLKELFGHLSKLLGCKQKIIDLLPKVEVALSNIKEADNTVMFMQGKRQKEIWHLLKIACTQSSARSLVGSSLEGAVTPQTSAWLPPTSAEHDHSLSCVVTPQDGETSAQMIEENLNCLGHLSTIIHEANEEQGNSMMNLDWSWLTE

Molecular target: RAP-2 (RIP-associated protein-2), full-length
Sequence (chain, as listed by the source): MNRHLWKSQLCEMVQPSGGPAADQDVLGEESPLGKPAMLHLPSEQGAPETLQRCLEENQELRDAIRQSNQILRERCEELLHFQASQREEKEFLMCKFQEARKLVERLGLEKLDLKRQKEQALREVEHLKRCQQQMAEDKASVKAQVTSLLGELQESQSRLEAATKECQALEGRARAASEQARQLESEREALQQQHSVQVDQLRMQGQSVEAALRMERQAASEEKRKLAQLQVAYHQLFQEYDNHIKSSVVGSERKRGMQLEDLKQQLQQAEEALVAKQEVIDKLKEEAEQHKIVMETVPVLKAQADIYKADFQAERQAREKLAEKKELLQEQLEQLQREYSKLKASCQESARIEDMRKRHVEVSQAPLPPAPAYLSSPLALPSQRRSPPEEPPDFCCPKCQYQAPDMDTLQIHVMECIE

Protein	in vitro immunocomplex kinase assay	in vitro phosphorylation of the immunoprecipitated complex
B1	over-expressed RIP did not phosphorylate RAP-2	–
B2	–	RAP-2 becomes phosphorylated
